Data reported in US20150344570A1 (published 2015).

These binders were tested against T1, FcγRIIIa extracellular domain with C-terminal His tag (human, UniProt P08637 17-208) (assay: SPR Biacore, captured antibody, FcγR analyte, relative binding).
T1 construct: extracellular domain; also called FcgRIIIa; 3a; not shown: His tag attached to the C terminus
Protocol: Analysis of interaction between objective antibody and the FcγR was carried out using Biacore T100 (GE Healthcare). HBS-EP+ (GE Healthcare) was used as the running buffer, and the measurement temperature was set to 25° C. Chips produced by immobilizing the antigen peptide by the amine coupling method to a Series S Sencor Chip CM5 (GE Healthcare), or alternatively, chips produced by allowing preliminarily biotinylated antigen peptides to interact with and immobilize onto a Series S Sensor Chip SA (certified) (GE Healthcare) were used. Antibodies of interest were captured onto an antigen peptide-immobilized chip, and allowed to interact to each FcγR diluted with running buffer. To regenerate and repeatedly use the chip, the antibodies captured on the chip were washed off by reacting 10 mM glycine-HCl, pH 1.5.

T1 sequence (P08637 17-208): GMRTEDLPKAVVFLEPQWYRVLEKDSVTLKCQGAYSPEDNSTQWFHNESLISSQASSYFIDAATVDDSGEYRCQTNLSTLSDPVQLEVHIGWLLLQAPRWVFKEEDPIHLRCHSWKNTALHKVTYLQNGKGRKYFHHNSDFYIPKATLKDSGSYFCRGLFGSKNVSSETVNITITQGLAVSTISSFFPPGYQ

Ho/Con_3a | Binder
220 % of HoCon Ab GpH7-B3/GpL16-k0 (=100) | GpH7-B3 variant H268_09D/GpL16-k0 (antibody, human IgG1, kappa, also called Ho Ab H268_09D) heavy: not shown light: DIVMTQSPLSLPVTPGEPASISCQASESLVHSNRNTYLHWYLQKPGQSPQLLIYKVSNRFSGVPDRFSGSGSGTDFTLKISRVEAEDVGVYYCSQNTHVPPTFGQGTKVEIERTVAAPSVFIFPPSDEQLKSGTASVVCLLNNFYPREAKVQWKVDNALQSGNSQESVTEQDSKDSTYSLSSTLTLSKADYEKHKVYACEVTHQGLSSPVTKSFNRGEC
278 % of HoCon Ab GpH7-B3/GpL16-k0 (=100) | GpH7-B3 variant I332_10E/GpL16-k0 (antibody, human IgG1, kappa, also called Ho Ab I332_10E) heavy: not shown light: DIVMTQSPLSLPVTPGEPASISCQASESLVHSNRNTYLHWYLQKPGQSPQLLIYKVSNRFSGVPDRFSGSGSGTDFTLKISRVEAEDVGVYYCSQNTHVPPTFGQGTKVEIERTVAAPSVFIFPPSDEQLKSGTASVVCLLNNFYPREAKVQWKVDNALQSGNSQESVTEQDSKDSTYSLSSTLTLSKADYEKHKVYACEVTHQGLSSPVTKSFNRGEC
206 % of HoCon Ab GpH7-B3/GpL16-k0 (=100) | GpH7-B3 variant H268_10E/GpL16-k0 (antibody, human IgG1, kappa, also called Ho Ab H268_10E) heavy: not shown light: DIVMTQSPLSLPVTPGEPASISCQASESLVHSNRNTYLHWYLQKPGQSPQLLIYKVSNRFSGVPDRFSGSGSGTDFTLKISRVEAEDVGVYYCSQNTHVPPTFGQGTKVEIERTVAAPSVFIFPPSDEQLKSGTASVVCLLNNFYPREAKVQWKVDNALQSGNSQESVTEQDSKDSTYSLSSTLTLSKADYEKHKVYACEVTHQGLSSPVTKSFNRGEC
138 % of HoCon Ab GpH7-B3/GpL16-k0 (=100) | GpH7-B3 variant A330_08L/GpL16-k0 (antibody, human IgG1, kappa, also called Ho Ab A330_08L) heavy: not shown light: DIVMTQSPLSLPVTPGEPASISCQASESLVHSNRNTYLHWYLQKPGQSPQLLIYKVSNRFSGVPDRFSGSGSGTDFTLKISRVEAEDVGVYYCSQNTHVPPTFGQGTKVEIERTVAAPSVFIFPPSDEQLKSGTASVVCLLNNFYPREAKVQWKVDNALQSGNSQESVTEQDSKDSTYSLSSTLTLSKADYEKHKVYACEVTHQGLSSPVTKSFNRGEC
255 % of HoCon Ab GpH7-B3/GpL16-k0 (=100) | GpH7-B3 variant I332_09D/GpL16-k0 (antibody, human IgG1, kappa, also called Ho Ab I332_09D) heavy: not shown light: DIVMTQSPLSLPVTPGEPASISCQASESLVHSNRNTYLHWYLQKPGQSPQLLIYKVSNRFSGVPDRFSGSGSGTDFTLKISRVEAEDVGVYYCSQNTHVPPTFGQGTKVEIERTVAAPSVFIFPPSDEQLKSGTASVVCLLNNFYPREAKVQWKVDNALQSGNSQESVTEQDSKDSTYSLSSTLTLSKADYEKHKVYACEVTHQGLSSPVTKSFNRGEC
174 % of HoCon Ab GpH7-B3/GpL16-k0 (=100) | GpH7-B3 variant A330_04F/GpL16-k0 (antibody, human IgG1, kappa, also called Ho Ab A330_04F) heavy: not shown light: DIVMTQSPLSLPVTPGEPASISCQASESLVHSNRNTYLHWYLQKPGQSPQLLIYKVSNRFSGVPDRFSGSGSGTDFTLKISRVEAEDVGVYYCSQNTHVPPTFGQGTKVEIERTVAAPSVFIFPPSDEQLKSGTASVVCLLNNFYPREAKVQWKVDNALQSGNSQESVTEQDSKDSTYSLSSTLTLSKADYEKHKVYACEVTHQGLSSPVTKSFNRGEC
114 % of HoCon Ab GpH7-B3/GpL16-k0 (=100) | GpH7-B3 variant I332_02A/GpL16-k0 (antibody, human IgG1, kappa, also called Ho Ab I332_02A) heavy: not shown light: DIVMTQSPLSLPVTPGEPASISCQASESLVHSNRNTYLHWYLQKPGQSPQLLIYKVSNRFSGVPDRFSGSGSGTDFTLKISRVEAEDVGVYYCSQNTHVPPTFGQGTKVEIERTVAAPSVFIFPPSDEQLKSGTASVVCLLNNFYPREAKVQWKVDNALQSGNSQESVTEQDSKDSTYSLSSTLTLSKADYEKHKVYACEVTHQGLSSPVTKSFNRGEC
130 % of HoCon Ab GpH7-B3/GpL16-k0 (=100) | GpH7-B3 variant H268_13S/GpL16-k0 (antibody, human IgG1, kappa, also called Ho Ab H268_13S) heavy: not shown light: DIVMTQSPLSLPVTPGEPASISCQASESLVHSNRNTYLHWYLQKPGQSPQLLIYKVSNRFSGVPDRFSGSGSGTDFTLKISRVEAEDVGVYYCSQNTHVPPTFGQGTKVEIERTVAAPSVFIFPPSDEQLKSGTASVVCLLNNFYPREAKVQWKVDNALQSGNSQESVTEQDSKDSTYSLSSTLTLSKADYEKHKVYACEVTHQGLSSPVTKSFNRGEC
118 % of HoCon Ab GpH7-B3/GpL16-k0 (=100) | GpH7-B3 variant A330_20W/GpL16-k0 (antibody, human IgG1, kappa, also called Ho Ab A330_20W) heavy: not shown light: DIVMTQSPLSLPVTPGEPASISCQASESLVHSNRNTYLHWYLQKPGQSPQLLIYKVSNRFSGVPDRFSGSGSGTDFTLKISRVEAEDVGVYYCSQNTHVPPTFGQGTKVEIERTVAAPSVFIFPPSDEQLKSGTASVVCLLNNFYPREAKVQWKVDNALQSGNSQESVTEQDSKDSTYSLSSTLTLSKADYEKHKVYACEVTHQGLSSPVTKSFNRGEC
104 % of HoCon Ab GpH7-B3/GpL16-k0 (=100) | GpH7-B3 variant I332_01G/GpL16-k0 (antibody, human IgG1, kappa, also called Ho Ab I332_01G) heavy: not shown light: DIVMTQSPLSLPVTPGEPASISCQASESLVHSNRNTYLHWYLQKPGQSPQLLIYKVSNRFSGVPDRFSGSGSGTDFTLKISRVEAEDVGVYYCSQNTHVPPTFGQGTKVEIERTVAAPSVFIFPPSDEQLKSGTASVVCLLNNFYPREAKVQWKVDNALQSGNSQESVTEQDSKDSTYSLSSTLTLSKADYEKHKVYACEVTHQGLSSPVTKSFNRGEC
